Test results from patent publication US20180022822A1 (MABIMMUNE DIAGNOSTICS, published 2018).

Key:
[1] = target: T1, cFAP (mixture of three FAP peptides) (human); experiment: direct ELISA: coated mixture of three FAP peptides (cFAP)
T1 construct: A mixture of three separate peptides coated together, not a complex; The three chains are the three components; also called directly coated FAP peptides mixture
T1 peptide 1: HYIKDTVENAIQITS
T1 peptide 2: GWSYGGYVSSLALAS
T1 peptide 3: QVDFQAMWYSDQNHGL

[2] = target: T2, FAP peptide 521-539 with alanine substitution at position 532 (human); experiment: alanine-mutated linear peptides spotted on nitrocellulose
T2 construct: also called spot 13
T2 peptide: KMILPPQFDRSAKYPLLIQ
Experimental: Binding capacity of the antibodies was tested on these peptides spotted onto a nitrocellulose membrane (JPT Peptide Technologies, Berlin, Germany) and using HRP-conjugated donkey anti-human IgG secondary antibody (Jackson immunoResearch, Newmarket, UK) followed by detection of HRP activity (FIGS. 4A and C). In brief, epitope mapping was performed using scans of overlapping peptides. The entire sequences of FAP were synthesized as a total of 188 linear 15-mer peptides with an 11 amino acid overlap between individual peptides. Those peptides were spotted onto nitrocellulose membranes (JPT Peptide Technologies, Berlin, Germany). The membrane was activated for 5 min in methanol and washed in TBS for 10 min at RT. Non-specific binding sites were blocked for 2 h at RT with Roti®-Block (Carl Roth GmbH+Co. KG, Karlsruhe, Germany). Human antibodies (1 μg/ml) were incubated in Roti®-Block for 3 h at RT. Binding of primary antibody was determined using HRP-conjugated donkey anti-human IgG secondary antibody. Blots were developed and evaluated using ECL and ImageQuant 350 detection (GE Healthcare, Otelfingen, Switzerland).

[3] = target: T3, bovine serum albumin (BSA) (bovine, UniProt P02769 25-607); experiment: direct ELISA: BSA coated directly on the plate
T3 construct: Negative control antigen in the ELISAs

[4] = target: T4, recombinant human Dipeptidyl Peptidase 9 (DPP9) (human, UniProt Q86TI2 1-863, limits assumed); experiment: sandwich ELISA: F19 coated as capture antibody, homologue titrated, HRP-labelled NI-206.82C2 as detection antibody; no signal means that no F19/antigen/82C2 sandwich formed
T4 construct: Bought active enzyme; also called rhDPP9
Experimental: (§1) The coating solution was removed and the plate was blocked with 40 μL 2% BSA in PBS blocking buffer for 1 h at room temperature and then discarded. 30 uL sample solution was then added. Sample solutions included recombinant human FAP standard (FIG. 17A), human serum at varying dilutions (FIG. 17B), FAP homologues (FIG. 17C), serum samples from healthy patients (FIGS. 18 and 19), serum samples patients with metastatic colorectal cancer (FIG. 18), serum samples from patients with cardiovascular disease (FIG. 19), sodium citrate plasma samples from healthy patients (FIG. 20), and sodium citrate samples from patients with symptomatic carotid atherosclerotic plaques (FIG. 20). Sample solutions were added at a total volume of 30 μL. The plate was washed three times with 40 μL PBS and blotted dry. […] The plate was then washed again three times with 3×PBS and blotted dry. 30 μL TMB (3,3′,5,5′-Tetramethylbenzidine) solution was then added to each well and allowed to develop for 5-10 minutes at room temperature. The reaction was then stopped by the addition of 30 μL 1M H2SO4, and absorbance at 450 nm was read with a plate reader.

[5] = target: T5, recombinant human Dipeptidyl Peptidase IV (DPPIV) (human, UniProt P27487 29-766, limits assumed); experiment: as above
T5 construct: Bought active enzyme; also called rhDPPIV; DPP4
Experimental: as §1

[6] = target: T6, recombinant human Prolyl Oligopeptidase/Prolyl Endopeptidase (POP/PREP) (human, UniProt P48147 1-710); experiment: as above
T6 construct: Bought active enzyme; also called rhPOP/PREP; BPS Bioscience 80105
T6 sequence (looked up): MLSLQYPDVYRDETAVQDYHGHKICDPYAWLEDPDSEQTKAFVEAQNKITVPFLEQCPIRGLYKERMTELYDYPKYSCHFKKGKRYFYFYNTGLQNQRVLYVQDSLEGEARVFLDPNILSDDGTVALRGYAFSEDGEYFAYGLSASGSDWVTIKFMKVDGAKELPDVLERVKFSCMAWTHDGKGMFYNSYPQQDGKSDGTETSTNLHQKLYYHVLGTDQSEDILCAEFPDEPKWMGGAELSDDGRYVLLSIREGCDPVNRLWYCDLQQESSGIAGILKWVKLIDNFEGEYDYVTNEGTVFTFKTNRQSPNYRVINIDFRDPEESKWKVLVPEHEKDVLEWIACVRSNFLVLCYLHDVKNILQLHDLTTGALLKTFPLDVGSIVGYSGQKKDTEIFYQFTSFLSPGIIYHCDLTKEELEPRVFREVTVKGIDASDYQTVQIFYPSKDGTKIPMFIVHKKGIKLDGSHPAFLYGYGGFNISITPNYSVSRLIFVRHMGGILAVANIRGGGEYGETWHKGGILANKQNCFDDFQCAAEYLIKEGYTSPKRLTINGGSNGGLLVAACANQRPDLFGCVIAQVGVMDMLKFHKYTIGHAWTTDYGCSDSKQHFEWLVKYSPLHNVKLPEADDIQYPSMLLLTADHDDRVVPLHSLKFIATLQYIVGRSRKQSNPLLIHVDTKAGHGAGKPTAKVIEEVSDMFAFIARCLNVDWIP
Experimental: as §1

T4 sequence (Q86TI2 whole entry): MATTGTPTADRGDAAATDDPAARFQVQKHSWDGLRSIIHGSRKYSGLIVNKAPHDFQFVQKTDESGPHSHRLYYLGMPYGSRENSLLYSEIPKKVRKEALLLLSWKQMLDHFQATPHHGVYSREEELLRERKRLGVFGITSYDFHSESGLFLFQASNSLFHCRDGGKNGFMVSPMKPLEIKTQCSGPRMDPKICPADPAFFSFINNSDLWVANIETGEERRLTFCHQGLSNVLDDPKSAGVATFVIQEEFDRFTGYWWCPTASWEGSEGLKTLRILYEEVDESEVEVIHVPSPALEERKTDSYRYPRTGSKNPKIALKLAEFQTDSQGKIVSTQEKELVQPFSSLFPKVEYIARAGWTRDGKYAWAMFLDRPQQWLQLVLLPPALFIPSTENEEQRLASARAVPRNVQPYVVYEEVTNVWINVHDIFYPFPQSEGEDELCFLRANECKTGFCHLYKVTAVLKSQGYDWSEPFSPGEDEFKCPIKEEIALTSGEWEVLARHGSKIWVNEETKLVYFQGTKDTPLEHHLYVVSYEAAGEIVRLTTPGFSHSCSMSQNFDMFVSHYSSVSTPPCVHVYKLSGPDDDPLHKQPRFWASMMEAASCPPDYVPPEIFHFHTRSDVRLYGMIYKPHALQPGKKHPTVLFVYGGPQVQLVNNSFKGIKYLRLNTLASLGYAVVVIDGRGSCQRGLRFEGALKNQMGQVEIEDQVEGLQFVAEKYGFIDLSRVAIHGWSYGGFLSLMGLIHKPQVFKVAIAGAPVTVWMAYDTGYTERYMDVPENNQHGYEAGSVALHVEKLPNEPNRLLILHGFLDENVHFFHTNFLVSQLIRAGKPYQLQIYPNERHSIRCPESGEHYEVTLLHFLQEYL
T5 sequence (P27487 29-766 limits assumed): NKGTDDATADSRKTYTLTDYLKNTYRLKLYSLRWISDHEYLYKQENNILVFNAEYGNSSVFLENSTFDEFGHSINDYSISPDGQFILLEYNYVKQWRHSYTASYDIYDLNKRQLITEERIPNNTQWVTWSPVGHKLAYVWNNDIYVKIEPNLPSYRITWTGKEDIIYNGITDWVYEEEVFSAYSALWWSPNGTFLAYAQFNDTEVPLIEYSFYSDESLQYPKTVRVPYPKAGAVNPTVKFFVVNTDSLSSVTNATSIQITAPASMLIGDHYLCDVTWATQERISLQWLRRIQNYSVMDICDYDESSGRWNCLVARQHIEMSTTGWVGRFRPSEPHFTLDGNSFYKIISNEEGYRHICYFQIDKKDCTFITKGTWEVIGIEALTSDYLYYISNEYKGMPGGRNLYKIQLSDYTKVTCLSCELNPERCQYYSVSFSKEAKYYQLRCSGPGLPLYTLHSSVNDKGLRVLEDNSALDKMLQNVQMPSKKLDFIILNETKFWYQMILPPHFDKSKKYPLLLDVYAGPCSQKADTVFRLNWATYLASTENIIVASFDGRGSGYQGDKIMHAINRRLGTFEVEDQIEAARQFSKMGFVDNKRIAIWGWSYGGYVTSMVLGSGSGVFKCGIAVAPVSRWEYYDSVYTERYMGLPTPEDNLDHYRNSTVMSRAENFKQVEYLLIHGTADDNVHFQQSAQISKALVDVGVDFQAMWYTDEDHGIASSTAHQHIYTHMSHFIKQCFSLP
T3 sequence (P02769 25-607 limits assumed): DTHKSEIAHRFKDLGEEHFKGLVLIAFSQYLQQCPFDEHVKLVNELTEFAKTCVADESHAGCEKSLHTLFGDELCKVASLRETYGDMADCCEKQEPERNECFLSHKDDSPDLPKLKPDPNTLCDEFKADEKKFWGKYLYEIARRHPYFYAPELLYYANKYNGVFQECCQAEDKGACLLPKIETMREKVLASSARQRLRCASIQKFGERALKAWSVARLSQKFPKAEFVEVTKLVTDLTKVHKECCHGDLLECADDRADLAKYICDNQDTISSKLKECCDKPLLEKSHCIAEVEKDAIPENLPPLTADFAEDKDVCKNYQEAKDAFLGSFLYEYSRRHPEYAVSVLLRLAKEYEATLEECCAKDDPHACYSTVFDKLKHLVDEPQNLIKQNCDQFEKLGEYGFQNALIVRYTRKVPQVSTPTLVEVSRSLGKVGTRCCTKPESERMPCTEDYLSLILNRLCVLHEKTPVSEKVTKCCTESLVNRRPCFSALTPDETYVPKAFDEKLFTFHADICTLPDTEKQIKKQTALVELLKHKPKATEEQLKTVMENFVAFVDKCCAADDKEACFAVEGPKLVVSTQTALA

binding result [1]: no binding | binding result [2]: no binding | binding result [3]: no binding | binding result [4]: no binding (tested: 250 ng/mL) | binding result [5]: no binding (tested: 250 ng/mL) | binding result [6]: no binding (tested: 250 ng/mL)
B1: NI-206.82C2 (antibody, V domains shown)
VH: QVQLQQSGPGLVKPSQTLSLTCAISGDSVSSNSVTWNWIRQSPSRGLEWLGRTYYRSKWYNDYAVSVKGRITINPDTSKNQFYLQLKSVTPEDAAVYYCARDSSILYGDYWGQGTLVTVSS
VL: QAVLTQPSSLSASPGASASLTCTLPSGINVGTYRIFWFQQKPGSPPQYLLSYKSDSDNHQGSGVPSRFSGSKDASANAGILLISGLQSEDEADYYCMIWHSSAWVFGGGTKLTVL
notes: Recombinantly expressed as complete human IgG1 with a lambda light chain; HRP-labelled in the homologue and sandwich ELISAs, Cy5-labelled in flow cytometry; also called HRP-labelled 82C2; Cy5 labelled 82C2
